Results from the supplement of paper PMC9170038.

System: MS2 coat protein
Experiment: apparent KD of MS2 coat protein; higher = weaker reporter binding
Details: Eterna round: R107
Description: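 RNA-MaP round R107: designed RNA switches with theophylline, tryptophan, arginine or FMN aptamers are transcribed on-chip within common flanks. They are titrated with SNAP-549-labelled MS2 coat protein in RNA-MaP buffer (100 mM Tris pH 7.5, 80 mM KCl, 4 mM MgCl2), without ligand or with the indicated ligand. Median apparent KD per design.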

[1] = input ligand: theophylline 20 uM
[2] = input ligand: tryptophan 2.4 mM
[3] = input ligand: theophylline 2 mM

AUCGUACCUGGUGAUACCAGCAAUUGCUCGUGACAUGAGGAUCACCCAUGUGGCCAGUGAUGCCCUUGGCAGCAUGGUCGGUGCA [Same State - Theophylline B (Freestyle 24)]
apparent KD of MS2 coat protein (input ligand: arginine 13.2 mM): 72.4 nM | apparent KD of MS2 coat protein [1]: 167 nM | apparent KD of MS2 coat protein [2]: 122 nM

UCGUGAGUUUCGGAUACCAGUGUGGUCGAUACAUGAGGAUCACCCAUGUUAGAGGAGGUACACCCUUGGCAGCCGGCUGUGGCGG [hlhmullin]
apparent KD of MS2 coat protein (input ligand: arginine 13.2 mM): 31.4 nM | apparent KD of MS2 coat protein (input ligand: none): 23.5 nM | apparent KD of MS2 coat protein [1]: 35.4 nM | apparent KD of MS2 coat protein [3]: 18.1 nM | apparent KD of MS2 coat protein [2]: 25 nM

UAUUAUCAGUCGGCCGCCACUGUCACAUGAGGAUCACCCAUGUAACUUGGGUUAUAUUUAAUAUACAGGACCGGGACAAAGGCUA [JR_ExcTryptoB_Sub012]
apparent KD of MS2 coat protein (input ligand: arginine 13.2 mM): 61.5 nM | apparent KD of MS2 coat protein [1]: 76.6 nM | apparent KD of MS2 coat protein [3]: 66.8 nM

CGUGAUACUGGUAUACUCUGAAGAUCAAUUCGAGGACCGGUACGGCCGCCACUCGUUAGUAGACAUGAGGAUCACCCAUGUUAGU [theeternabot_exclusion_MS2_Trp_A_48]
apparent KD of MS2 coat protein (input ligand: arginine 13.2 mM): 11.8 nM | apparent KD of MS2 coat protein [1]: 20.6 nM | apparent KD of MS2 coat protein [3]: 17.7 nM

UGACAUUGCUCAGAUACCAGACGUGAGGAUCACCCACGUGCCAACAUGAGGAUCACCCAUGUCCCUUGGCAGCUGAGCAAUGUCU
apparent KD of MS2 coat protein (input ligand: arginine 13.2 mM): 12.8 nM | apparent KD of MS2 coat protein [1]: 24.1 nM | apparent KD of MS2 coat protein [2]: 15.5 nM

CAUCCUAGUACAUGAGGAUCACCCAUGUAUCGAGGACCGGUACGGCCGCCACUCGAAUGGCGGAUCGUUGAUCCUUUAGGAUGAA [Tryp A Ex t4]
apparent KD of MS2 coat protein (input ligand: arginine 13.2 mM): 16.5 nM | apparent KD of MS2 coat protein (input ligand: none): 14.3 nM | apparent KD of MS2 coat protein [1]: 20.7 nM | apparent KD of MS2 coat protein [3]: 20.9 nM | apparent KD of MS2 coat protein [2]: 19.2 nM

UGGGCUGGGUGCGUAAAGGGCCUGGCGCAUCGAGGACCGGUACGGCCGCCACUCGGCUGUACAUGAGGAUCACCCAUGUCAGGGU [#1 Same State - Tryptophan A Attempt #18 (HarryS)]
apparent KD of MS2 coat protein (input ligand: arginine 13.2 mM): 45.9 nM | apparent KD of MS2 coat protein (input ligand: none): 192 nM | apparent KD of MS2 coat protein [1]: 552 nM | apparent KD of MS2 coat protein [3]: 506 nM | apparent KD of MS2 coat protein [2]: 364 nM

UUAUGCAGGUCGGCCGCCACUACACACAUGAGGAUCACCCAUGUAGUUACUGGGUGAAGUGGCAGUAGGACCGGGACCUGCACAC [Brourdmod14]
apparent KD of MS2 coat protein (input ligand: arginine 13.2 mM): 148 nM | apparent KD of MS2 coat protein (input ligand: none): 470 nM | apparent KD of MS2 coat protein [1]: 403 nM | apparent KD of MS2 coat protein [3]: 823 nM | apparent KD of MS2 coat protein [2]: 891 nM

ACAUUGCGCACGGCCGCCACUGGCUAUAGAUUUAUAGCAUUAAUGAACAUGAGGAUCACCCAUGUCAGGACCGGGUGCGAACCAU [SSTryp B #9]
apparent KD of MS2 coat protein (input ligand: arginine 13.2 mM): 14 nM | apparent KD of MS2 coat protein [1]: 22.7 nM | apparent KD of MS2 coat protein [3]: 27.6 nM

AAUGUCGGAUCGGCCGCCACUGGUUGGCCCUGUGUACAUGAGGAUCACCCAUGUCCAUCCCAAACCAGGACCGGGAUCUUUAUGU [Xeananor]
apparent KD of MS2 coat protein (input ligand: arginine 13.2 mM): 37.9 nM | apparent KD of MS2 coat protein [1]: 51.7 nM | apparent KD of MS2 coat protein [3]: 40.4 nM

ACAUGAGGAUCACCCAUGUUUGUUGUUCCUCGAGGACCGGUACGGCCGCCACUCGAACGAGUGGCACGCGAGUGCGCACUCGCGU [aPa]
apparent KD of MS2 coat protein (input ligand: arginine 13.2 mM): 13.9 nM | apparent KD of MS2 coat protein [1]: 19.6 nM | apparent KD of MS2 coat protein [3]: 13.1 nM | apparent KD of MS2 coat protein [2]: 13 nM

AGAGUUAGACAAAAGUCUAGCUCACCAGAAGGAGCGUCCGAAAGGACAGGUAGGUCGCUGGUACAUGAGCAUCAGCCAUGUUCCU [ArgAS 15 #OpenEnded #AlternativeMS2]
apparent KD of MS2 coat protein (input ligand: arginine 13.2 mM): 18.1 nM | apparent KD of MS2 coat protein (input ligand: none): 23.7 nM | apparent KD of MS2 coat protein [1]: 28 nM | apparent KD of MS2 coat protein [3]: 28.5 nM | apparent KD of MS2 coat protein [2]: 24.1 nM

AGAGUUAGACAAAAGUCUAGCUCACCAGAAGGAGCGUCCGAAAGGACAGGUAGGUCGCUGGUGCAUGAGGAUCACCCAUGCUCCU [ArgAS 19 #OpenEnded #AlternativeMS2]
apparent KD of MS2 coat protein (input ligand: arginine 13.2 mM): 66.6 nM | apparent KD of MS2 coat protein (input ligand: none): 204 nM | apparent KD of MS2 coat protein [1]: 171 nM | apparent KD of MS2 coat protein [3]: 243 nM | apparent KD of MS2 coat protein [2]: 211 nM

ACAUGAGGAUCACCCAUGUAAAUAACGGAAGGAGCGUGCAAAAGCACAGGUAGGUCGCCGAUAUAAAUAUUGGGUAUUAUAUUUU [AstrosExyArgA#3]
apparent KD of MS2 coat protein (input ligand: arginine 13.2 mM): 30.4 nM | apparent KD of MS2 coat protein (input ligand: none): 30.4 nM | apparent KD of MS2 coat protein [1]: 40.3 nM | apparent KD of MS2 coat protein [3]: 31.7 nM | apparent KD of MS2 coat protein [2]: 29.6 nM

AACAUGAGGAUCACCCAUGUCAUGUUGGAUACCAGCCAAUAAUAAGGCCCUUGGCAGCUAUAGAUCGAUGAUCCAUGAGGAUCAC [Exclusion Theophylline A]
apparent KD of MS2 coat protein (input ligand: arginine 13.2 mM): 27.6 nM | apparent KD of MS2 coat protein [1]: 49.4 nM | apparent KD of MS2 coat protein [2]: 33.1 nM

ACAUGAGGAUCACCCAUGUACGGUAUCAAUCGAGGACCGGUACGGCCGCCACUCGGAAAUAGAAGCGAUUAUUAGUGUUCUUUGU [Same State - Tryptophan A / A]
apparent KD of MS2 coat protein (input ligand: arginine 13.2 mM): 16.1 nM | apparent KD of MS2 coat protein [1]: 19 nM | apparent KD of MS2 coat protein [3]: 16.6 nM

GGAGGUACCCGAAGGAGCGACAUGAGGAUCACCCAUGUCUCCCGUUAUGGGAGUUCCUUAGGUCAGGUAGGUCGCGGGUACCUCC [#1 Exclusion - Arginine B Attempt #1 (Inspired by Omei)]
apparent KD of MS2 coat protein (input ligand: arginine 13.2 mM): 92.7 nM | apparent KD of MS2 coat protein (input ligand: none): 124 nM | apparent KD of MS2 coat protein [1]: 162 nM | apparent KD of MS2 coat protein [3]: 128 nM | apparent KD of MS2 coat protein [2]: 109 nM

AACCAUCUCGGCGAUACCAGUGCCUACGAGUACAUGAGGAUCACCCAUGUAGGUGACCGACACCCUUGGCAGCGCGAUUGAGUCA [theeternabot_sameState_MS2_Theo_B_45]
apparent KD of MS2 coat protein (input ligand: arginine 13.2 mM): 70.9 nM | apparent KD of MS2 coat protein [1]: 184 nM | apparent KD of MS2 coat protein [2]: 129 nM

UGUAUGUGAUCUGAUACCAGAGAUGAUAACCUGAGGAUCACCCUGGUAAGGCGAAAGCCACUCCCUUGGCAGCAGAUCGCAUACU
apparent KD of MS2 coat protein (input ligand: arginine 13.2 mM): 48.3 nM | apparent KD of MS2 coat protein (input ligand: none): 34.4 nM | apparent KD of MS2 coat protein [1]: 40.7 nM | apparent KD of MS2 coat protein [3]: 26.3 nM | apparent KD of MS2 coat protein [2]: 39 nM
